Measured values reported in publication PMC3836175 (Science (New York, N.Y.), 2013).

Molecular target: T1, N-terminally truncated eIF5B (residues 396-1002) with the point mutation T439A (S. cerevisiae, UniProt P39730 396-1002, T439A)
T1 sequence (looked up): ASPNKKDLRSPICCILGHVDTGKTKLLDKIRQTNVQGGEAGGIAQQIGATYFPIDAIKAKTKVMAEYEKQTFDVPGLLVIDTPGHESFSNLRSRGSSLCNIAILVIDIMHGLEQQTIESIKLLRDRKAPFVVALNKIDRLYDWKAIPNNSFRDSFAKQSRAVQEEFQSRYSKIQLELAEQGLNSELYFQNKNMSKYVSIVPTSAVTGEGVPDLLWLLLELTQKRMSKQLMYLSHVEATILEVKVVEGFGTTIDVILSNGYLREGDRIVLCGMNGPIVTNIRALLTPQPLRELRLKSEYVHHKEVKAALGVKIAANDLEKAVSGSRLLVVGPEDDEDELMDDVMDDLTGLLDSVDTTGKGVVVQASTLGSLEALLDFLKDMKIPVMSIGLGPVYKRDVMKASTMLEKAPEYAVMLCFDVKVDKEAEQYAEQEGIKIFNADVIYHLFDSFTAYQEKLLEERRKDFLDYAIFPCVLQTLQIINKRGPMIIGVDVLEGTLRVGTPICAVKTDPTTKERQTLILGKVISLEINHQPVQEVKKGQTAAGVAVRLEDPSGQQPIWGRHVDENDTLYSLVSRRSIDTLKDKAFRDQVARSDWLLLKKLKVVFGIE
Assay: cryo-EM structure

B1: ribosomal protein S23 (the yeast orthologue of bacterial protein S12) (natural protein, UniProt P0CX29 1-145, looked up)
chain: MGKGKPRGLNSARKLRVHRRNNRWAENNYKKRLLGTAFKSSPFGGSSHAKGIVLEKLGIESKQPNSAIRKCVRVQLIKNGKKVTAFVPNDGCLNFVDENDEVLLAGFGRKGKAKGDIPGVRFKVVKVSGVSLLALWKEKKEKPRS
  binding result: binds
